Reference: the nanobody polyreactivity screen of Harvey et al. (2022)

Assay: yeast display, Sf9 membrane polyspecificity reagent, FACS + sequencing; frameworks hold sequencing errors
In short: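 A nanobody's polyreactivity label depends on the gate it was sorted from. Yeast display cells were stained with 10% biotinylated, detergent-solubilized Sf9 membrane reagent for 1 hour at 4 °C, enriched on streptavidin microbeads and sorted by FACS. The low and high (top ~1%) gates were set on anti-HA fluorescence for expression and streptavidin fluorescence for reagent binding.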

| Sequence | polyreactivity (PSR sort gate) |
| --- | --- |
| QVQLVESGGGLVQAGGSLRLSCAASGRTFSRNAMGWYRQAPGKERELVATITSDGSTNYADSVKGRFTISRDNAKNTVYLQMNSLKPEDTAVYYCAAGEQSSIIGAHDYWGQGTQVTVSS | low polyreactivity |
| QVQLVESGGGLVQAGGSLRLSCAASGRTFSRYAMGCYRQAPGKERELVAVITSSGASTYYADSVKGRFTISRDNAKNTVYLQMNSLKPEDTAVYYCAADRYYRGRRMNYWRQGTQVTVSS | high polyreactivity |
| QVQLVESGGGLVQAGGSLRLSCAASGRTFSRYAMGWYRQAPGKERELVAAITSGGGSTYYADSVKGRFTISRDNAKNTVYLQMNSLKPEDTAVYYCAARTSGDGWIYYYWGQGTQVTVSS | high polyreactivity |
| QVQLVESGGGLVQAGGSLRLSCAASGRTFSRYAMGWYRQAPGKERELVAGISRSGTSTYYADSVKGRFTFSRDNAKNTVYLQMNSLKPEDTAVYYCAAYYEYRRDYWGQGTQVTVSS | high polyreactivity |
| QVQLVESGGGLVQAGGSLRLSCAASGRTFSRYAMGWYRQAPGKERELVASMTRRGGRTYYADSVKGRFTISRDNAKNTVYFQMTSLKPEDTAGYYCNATSQIPWSSYYYWGQGTQVTVSS | high polyreactivity |
| QVQLVESGGGLVQAGGSLRLSCAASGRTFSRYVMGWYRQAPGKERELVAAISRTGGRTYYADSVKGRFTISRDNAKNTVYLQMNSLKPEDTAVYYCNAGTVLISTYDYWGQGTQVTVSS | high polyreactivity |
| QVQLVESGGGLVQAGGSLRLSCAASGRTFSSYAMGWYRQAPGKERELVARISSSGGRTSYADSVKGRFTISRDNAKNTVYLQMKSLKPEDTAVYYCAKTYHWLYDYWGQGTQVTVSS | high polyreactivity |
| QVQLVESGGGLVQAGGSLRLSCAASGRTFSSYTMGWYRQAPGKERELVASITNNGGSTYYADSVKGRFTISRDNEKNTVYLQMNSLKPEDTAGYYCNANSRVGLQDKKPRDYDGYDSWGQGTQVTVSS | low polyreactivity |
| QVQLVESGGGLVQAGGSLRLSCAASGRTFSTNAMGWYIQAPGKEREFVAAITGSGGSTYYADSVKGRFTISRDNAKNTVYLQMNSLKPEDTAVYYCAADRPGSRFIDVDYWGQGTQVTVSS | high polyreactivity |
| QVQLVESGGGLVQAGGSLRLSCAASGRTFSTYAMGWYRQAPGKEREMVAAISSGGGRTYYADSVKGRFTISRDYAKNTVYLQMNSLKPEDTAVYYSAADGYLRSRHGDYWGQGTQVTVSS | low polyreactivity |
| QVQLVESGGGLVQAGGSLRLSCAASGRTFSVYALGWYRPAPGKERELVAGITSGGSTNYADSVKGRFTMSRDNAKNTVYLQMNILKPEDTADYSCASENVYAVFLFVSIGDYWGQGTQETVSS | low polyreactivity |
| QVQLVESGGGLVQAGGSLRLSCAASGRTFSVYAMGWYRQAPGKERELVAAIRTSGGITYYADSVKGRFTISRDNAKNTVYLQMNSLKPEDTAVYYCAAETFRHYSYTRYYYWGQGTQVTVSS | high polyreactivity |
| QVQLVESGGGLVQAGGSLRLSCAASGRTFSVYAMGWYRQAPGKERELVARIRWSSGITYYADSVKGRFTISRDNAKNTVYLQMNSLKPEDTAVYYCAARYYTSATMDYWGQGTQVTVSS | high polyreactivity |
| QVQLVESGGGLVQAGGSLRLSCAASGRTFSVYSMGWYRQAPGKERDLVAGITGNGGSTYYADSVKGSFTISRDNAKNTVYLQMNSLKPEDTAVYYCATAYWVIITRGEYGYCGQGTQVTVSS | low polyreactivity |
| QVQLVESGGGLVQAGGSLRLSCAASGRTFSWYAMGWYRQAPGKERELVAAITRDGGNTYYADSVKGRFTISRDHAKNTVYLQMNSLKPEDTAVYYCAKRGYVNYYCGQGTQVTVSS | high polyreactivity |
| QVQLVESGGGLVQAGGSLRLSCAASGRTFSWYVMGLYRQAPGKERELVAAINSNSGSTYYADSVKGRFTISRDNAKNTVYLQMNSLKPEDTAVYYCAARAKRYNVRFDYWGQGTQVTVSS | high polyreactivity |
| QVQLVESGGGLVQAGGSLRLSCAASGRTFSYNAMGWYRQAPGKERELVAAINGDGGSTYYADSVKGRFTISRDNAKNTVYLQMNSLKPEDTAVYYCNRPRIYRYGYWGQGTQVTVSS | high polyreactivity |
